Assay results from US11497796B2, “Agents directed against a cis RGMa/neogenin interaction or lipid rafts and use of the same in methods of treatment” (UNIVERSITY HEALTH NETWORK, priority 2013, dated 2022).

B1: 4Ig: four immunoglobulin-like domains of Neogenin, amino acids 1 to 383 of Accession No. AAC59662 (SEQ ID NO:1) (protein, listed as Gallus gallus)
chain: RSGPRSPLTGSVVRTFTPFYFLVEPMDILSVRGASVIMNCSSYCETPPKIEWKKDGTLLNLVSDDRRQLLPDGSLLINSVVHSKHNKPDEGYYQCVATVESLGSIVSRTAKLTVAGLPRFTSQPELSSVYKGNSAILNCEVNVDLAPFVRWEQDRQPLSLDDRVFKLPSGALLIGNATDTDGGFYRCVIESGGTPKYSEEAELKILPDPEEPQSLVFVRQPSSLTKVTGQNAVFPCVAGGFPTPYVRWTKNGEELITEDSERFALRAGGSLLISDVTEEDVGTYTCIADNENETIEAQAELAVQVPPEFLKRPANIYAHESMDIVFECEVTGKPTPTVKWVKNGDVVIPSDYFKIVKEHNLQVLGLVKSDEGFYQCIAENDVGNAQAGAQLIILDLDVAIPTLPPTSLTSATNDHLAPATTGPLPTAPRDVVATLVSTRFIRLTWRTPVSDPQGDNLTYSIFYTKEGINRERVENTSRPGETQVMIQNLMPETVYVFRVVAQNKHGHGESSAPLKVATQPEVQLPGPAPNIRAYAGSPTSVTVTWETPLSGNGEIQNYKLYYMEKGQDSEQDVDVAGLSYTITGLKKYTEYSFRVVAYNKHGPGVSTQDVVVRTLSDVPSAAPQNLTLEARNSKSIMLHWQPPPAGTHSGQITGYKIRYRKVSRKSDVTESVGGTQLFQLIEGLERGTEYNFRIAAMTVNGTGPATDWVSAETFESDLDESRVPEVPSSLHVRPLVTSIVVSWTPPENQNIVVRGYAIGYGIGSPHAQTIKVDYKQRYYTIENLDPSSHYVITLKAFNNVGEGIPLYESAVTRPHSDTSEVDLFVINAPYTPVPDPSPMMPPVGVQASILSHDTIRITWADNSLPKNQKITDARYYTVRWKTNIPANTKYKTANATTLSYLVTGLKPNTLYEFSVMVTKGRRSSTWSMTAHGTTFELVPTSPPKDVTVVSKEGKPRTIIVNWQPPSEANGKITGYIIYYSTDVNAEIHDWVIEPVVGNRLTHQIQELTLDTPYYFKIQARNSKGMGPMSEAVQFRTPKAESSDKMPNDQASGSAGKGSRPVDVGPDYKPPLSGSNSPHGSPTSPLDSNMLLVIIVSVGVITIVIVVIVAVFCTRRTTSHQKKKRAACKSVNGSHKYKGNSKDVKPPDLWIHHERLELKPIDKSPDPNPIMTDTPIPRNSQDITPVDNSMDSNIHQRRNSYRGHESEDSMSTLAGRRGMRPKMMMPFDSQPPQPVISAHPIHSLDNPHHHFHSGSLASPTRSYLHHQVSPWPVGTSMSHSDRANSTESVRNTPSSDTMPASSSQPCADHQDPDSSSGAYLGSAQEEDAAQSLPTAHVRPSHPLKSFAVPAVPAAGSAYDPTLPSTPLLTQQAPSHPVHSVKTASIGTLGRTRPPMPVVVPSAPDVQETTRMLEDSESSYEPDELTKEMAHLEGLMKDLNAITTA
modifications: Neogenin - Accession No. AAC59662

What was measured:
4Ig-domain of Neogenin = target: T1, 4Ig-domain of Neogenin (Gallus gallus, UniProt Q90610); assay: ELISA / AP binding assay of RGMa peptides to Neogenin domains; details: ELISA, Neogenin domains fused to AP
T1 construct: made in house
T1 sequence (Q90610 1-383): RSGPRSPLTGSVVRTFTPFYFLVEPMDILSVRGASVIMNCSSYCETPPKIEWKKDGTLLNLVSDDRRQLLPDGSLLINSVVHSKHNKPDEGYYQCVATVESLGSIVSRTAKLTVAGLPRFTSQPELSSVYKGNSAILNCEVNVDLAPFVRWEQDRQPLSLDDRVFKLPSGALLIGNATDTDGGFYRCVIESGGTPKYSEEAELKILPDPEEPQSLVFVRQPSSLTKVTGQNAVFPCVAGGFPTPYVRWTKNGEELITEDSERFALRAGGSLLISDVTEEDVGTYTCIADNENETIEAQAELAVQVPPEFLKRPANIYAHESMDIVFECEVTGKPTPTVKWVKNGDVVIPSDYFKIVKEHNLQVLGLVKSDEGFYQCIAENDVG
Description: Specifically, the 4Ig-domain and 6FNIII-domain of Neogenin were each fused to alkaline phosphatase (AP). The 4Ig-domain and 6FNIII-domain of Neogenin were found in the extracellular portion of Neogenin. Accession No. AAC59662 (SEQ ID NO:1) was the amino acid sequence of Neogenin. The 4Ig-domain was amino acids 1 to 383 of Accession No. AAC59662 (SEQ ID NO:1). The 6FNIII-domain was amino acids 429 to 1036 of Accession No. AAC59662 (SEQ ID NO:1).
The binding of these fusions to various RGMa peptides were analyzed in an ELISA assay (FIG. 2A).
To determine if distinct N-terminal regions of RGMa bound the 4Ig- and 6FNIII-domains of Neogenin, peptides were generated that spanned the N-terminal region of RGMa. The amino acid sequence of RGMa was Accession No. NP_989868.1 (SEQ ID NO:6). These peptides were a peptide spanning amino acids 28-73 of RGMa (also referred to herein as “N-Raft”) and a peptide spanning amino acids 77-113 of RGMa (also referred to herein as “N-inh”). […] In a complementary experiment, in which the N-Raft and N-inh peptides of RGMa were fused with AP instead of the 4Ig- and 6FNIII-domains of Neogenin, N-Raft bound to the 4Ig-domain and not the 6FNIII-domain while N-inh bound to the 6FNIII-domain and not the 4Ig-domain (FIG. 9). Additionally, N-inh and N-Raft coated beads pulled down 6FNIII-domain and 4Ig-domain, respectively, which was consistent with the ELISA results described above (FIG. 2B).
The assay was conducted in a 96-well microtiter plate (Corning Incorporated). The wells were coated with 100 μl (10 μg/mL) of Poly-L-Lysine at 4° C. overnight. Wells were then washed three times with 100 μl of PB ST (+0.02% Tween).
50 μl (2.5 μg/mL) of His-tagged: Full-length Neogenin; the 4Ig-domain of Neogenin; and 6FNIII-domain of Neogenin were coated onto each well for 1 hour at 37° C. Following three washes of 100 μl PBST, each well was then blocked with 300 μl of 3% BSA in PBST for 1 hour at 37° C.
50 μl (1.0 μg/mL) AP-tagged: N-RGMa (28-73); N-RGMa (28-54); N-RGMa (40-62); N-RGMa (54-73); N-RGMa (54-62) in 1% BSA+PBST was then added to each well and incubated at 37° C. for 1 hour. Each well was washed thoroughly three times with 100 μl PBST followed by subsequent equilibration of each well with Alkaline Phosphatase (AP) developing buffer (100 mM NaHCO3, 1 mM MgCl2). The reaction was developed using AP developing buffer supplemented with, p-nitrophenyl phosphate (pNPP) (Sigma-Aldrich) and allowed to develop until color development. The reaction was stopped with the addition of 50 μl (0.1M) NaOH. The absorbance of each reaction was measured using a microplate autoreader (BIO-TEK Instruments Inc.) at 405 nanometers (nm) wavelength.

brain after stroke = assay: Cerebral focal ischemia model (MCA clot occlusion); format: in vivo, rat; details: daily injections
Protocol: In all experiments, female Sprague-Dawley rats weighing 200-250 g were used. Briefly, focal cerebral ischemia was induced by injection of a preformed clot into the MCA. The rats were initially anesthetized with 3.0% isoflurane and then maintained with 1.5% isoflurane in a mixture of 30:70 O2 and […] with a face mask during surgery. Body temperature was maintained at 37° C. in the normothermic rats with a heating pad for the duration of surgery and in the immediate postoperative period until the animal was fully recovered from anesthesia.
A 1.5-cm longitudinal incision was made in the midline of the ventral cervical skin. The right common carotid artery (CCA), right internal carotid artery (ICA), and right external carotid artery (ECA) were exposed. The distal portion of the ECA was ligated and cut. A modified polyethylene-10 catheter, filled with bovine thrombin (Thrombostat, TM Warner-Lambert Co.), was introduced into the lumen of the right ECA via a small puncture. Ten micro liters of blood was withdrawn into the catheter and retained for 15 minutes to allow formation of a clot. […] After returning to their cage, animals were monitored for normal recovery.
The infarct volume was expressed as a percentage of the total volume from the ipsilateral hemisphere. Brain edema was determined by calculating the volume difference between the 2 hemispheres and dividing by the volume of the left hemisphere.
Briefly, 7 days after MCA occlusion the anesthetized rats were killed. […] The images were analyzed and the determination of infarct volume and edema was blinded. The infarct volume was calculated using the following formula: Infarct volume=[left hemisphere volume−(the right hemisphere volume−measured infarct volume)]/left hemisphere volume.
Brain swelling was determined using the following formula: Swelling (edema)=(right hemisphere volume−left hemisphere volume)/left hemisphere volume. […]
Briefly, neurological deficits were determined using a modified Bederson's scoring system. […] Mortality was also recorded. […]

Molecule | interaction with the 4Ig-domain of Neogenin (4Ig-domain of Neogenin) | brain edema compared to control (brain after stroke) | infarct volume compared to control (brain after stroke) | behavioral deficits compared to control (brain after stroke; Bederson test)
N-Raft: peptide spanning amino acids 28-73 of RGMa (SEQ ID NO:2) (SPCKILKCNSEFWAATSGSHHLGAEETPEFCTALRAYAHCTRRTAR; N-Raft - amino acids 28-73 of RGMa) | interacted |  |  | 
B1 |  | significantly reduced | significantly reduced | significantly reduced
